Patent US20220242969A1 (FREDAX, published 2022)

Target: T1, prostate specific antigen (PSA) (human, UniProt P07288 25-261, limits assumed)
T1 construct: The antigen of the SPR study is only called 'PSA' (169 ug/ml, provided by Diaprost AB, Mw 30 000 Da); also called kallikrein III
Assay: SPR (Biacore 3000), PSA amine-coupled on CM4 chip, antibody in solution
Method: All binding experiments were performed on CM4 chip on a Biacore™ 3000 instrument. The chip and all the reagents needed for activation, immobilization, deactivation, binding and regeneration were purchased from GE Healthcare and used according to the guidelines from the manufacturer.
The dissociation phase data was fitted and the dissociation rate constants (koff) were estimated (see Table 1). [0279] (e) Estimation of the association rate constant (kₒₙ)
In order to estimate the association rate constants, the dissociation rate constants (Table 1) were used in the fitted equations. [0281] (f) Estimation of the dissociation constant (kD)

T1 sequence (P07288 25-261 limits assumed): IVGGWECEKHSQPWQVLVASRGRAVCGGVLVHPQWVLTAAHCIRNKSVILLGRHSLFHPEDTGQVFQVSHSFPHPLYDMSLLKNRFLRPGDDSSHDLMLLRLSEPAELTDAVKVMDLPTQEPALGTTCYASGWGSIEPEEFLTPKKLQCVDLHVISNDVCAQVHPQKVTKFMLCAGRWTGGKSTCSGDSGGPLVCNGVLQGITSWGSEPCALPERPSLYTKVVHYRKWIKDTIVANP

B1: h5A10-DFO (antibody, human IgG1, kappa, V domains shown)
VH: QVTLKESGPALVKPTQTLTLTCTFSGFSLSTTGMGVSWIRQPPGKALEWLAHIYWDDDKRYSTSLKTRLTISEDSSKNQVVLTMTNMDPVDTATYYCARKGYYGYFDYWGQGTLVTVSS
VL: DIQMTQSPSSLSASVGDRVTVTCRASQNVNTDVAWYQQKPGKAPKALIFSTSYLQSGVPSRFSGSGSGTDFTLTISSLQPEDFATYYCQQYSNYPLTFGQGTKVEIKR
modifications: DFO (deferoxamine) chelator conjugated to the antibody; sites and chain not stated
notes: Humanised 5A10 IgG1/kappa conjugated with the chelator DFO; also called h5A10-DFO (141203)
Which Kd does the source give for B1 here?
Its Kd is 0.05 nM.

And the koff?
Its koff is 8.3e-06 s⁻¹.

And the kon?
Its kon is 170000 M⁻¹ s⁻¹.

B2: h5A10-DOTA (antibody, human IgG1, kappa, V domains shown)
VH: QVTLKESGPALVKPTQTLTLTCTFSGFSLSTTGMGVSWIRQPPGKALEWLAHIYWDDDKRYSTSLKTRLTISEDSSKNQVVLTMTNMDPVDTATYYCARKGYYGYFDYWGQGTLVTVSS
VL: DIQMTQSPSSLSASVGDRVTVTCRASQNVNTDVAWYQQKPGKAPKALIFSTSYLQSGVPSRFSGSGSGTDFTLTISSLQPEDFATYYCQQYSNYPLTFGQGTKVEIKR
modifications: DOTA chelator conjugated to the antibody; sites and chain not stated
notes: Humanised 5A10 IgG1/kappa conjugated with the chelator DOTA; also called h5A10-DOTA (141211)
How did the Kd turn out when B2 was run?
The Kd was 0.02 nM.

And the koff?
Its koff is 1.17e-05 s⁻¹.

And the kon?
Its kon is 540000 M⁻¹ s⁻¹.

B3: h5A10-DTPA (antibody, human IgG1, kappa, V domains shown)
VH: QVTLKESGPALVKPTQTLTLTCTFSGFSLSTTGMGVSWIRQPPGKALEWLAHIYWDDDKRYSTSLKTRLTISEDSSKNQVVLTMTNMDPVDTATYYCARKGYYGYFDYWGQGTLVTVSS
VL: DIQMTQSPSSLSASVGDRVTVTCRASQNVNTDVAWYQQKPGKAPKALIFSTSYLQSGVPSRFSGSGSGTDFTLTISSLQPEDFATYYCQQYSNYPLTFGQGTKVEIKR
modifications: DTPA chelator conjugated to the antibody; sites and chain not stated
notes: Humanised 5A10 IgG1/kappa conjugated with the chelator DTPA; also called h5A10-DTPA (141203); DTPA-h5A10
What does the source list for B3?
Kd: 0.01 nM; koff: 4.8e-06 s⁻¹; kon: 390000 M⁻¹ s⁻¹

B4: humanised monoclonal antibody 5A10 (h5A10) (antibody, human IgG1, kappa, V domains shown)
VH: QVTLKESGPALVKPTQTLTLTCTFSGFSLSTTGMGVSWIRQPPGKALEWLAHIYWDDDKRYSTSLKTRLTISEDSSKNQVVLTMTNMDPVDTATYYCARKGYYGYFDYWGQGTLVTVSS
VL: DIQMTQSPSSLSASVGDRVTVTCRASQNVNTDVAWYQQKPGKAPKALIFSTSYLQSGVPSRFSGSGSGTDFTLTISSLQPEDFATYYCQQYSNYPLTFGQGTKVEIKR
notes: also called hu5A10 (141203); h5A10 (141203)
How did the Kd turn out when B4 was run?
Its Kd is 0.01 nM.

And the koff?
The koff was 4.8e-06 s⁻¹.

What about the kon of the same binder?
Its kon is 620000 M⁻¹ s⁻¹.
